Experimental data as given in article PMC8273617.

What was measured:
VWF (Homo sapiens) = VWF (Homo sapiens) (UniProt P04275); conditions: cited from earlier work
[1] = molecular target: Fc gamma receptor IIIA (FcγRIIIA/CD16) on PTA-6967 NK cells (human) (UniProt P08637)
[2] = molecular target: Fc gamma receptor IIIA (FcγRIIIA/CD16) on PTA-6967 NK cells (human) (UniProt P08637); remark: listed apart in the source
CD16 (Homo sapiens) = CD16 (Homo sapiens) (UniProt P08637); conditions: cited from earlier work
Chain of CD16 (Homo sapiens) (P08637 17-254): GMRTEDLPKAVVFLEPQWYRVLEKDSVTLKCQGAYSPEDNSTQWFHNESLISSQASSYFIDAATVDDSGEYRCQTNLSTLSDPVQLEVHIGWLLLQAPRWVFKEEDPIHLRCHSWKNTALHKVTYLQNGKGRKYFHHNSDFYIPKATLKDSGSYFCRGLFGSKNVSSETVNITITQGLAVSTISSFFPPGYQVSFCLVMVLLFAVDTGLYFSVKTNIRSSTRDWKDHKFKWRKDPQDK

Chain of Fc gamma receptor IIIA (FcγRIIIA/CD16) on PTA-6967 NK cells (human) (P08637 17-254): as above
Chain of FVIII (P00451 20-2351): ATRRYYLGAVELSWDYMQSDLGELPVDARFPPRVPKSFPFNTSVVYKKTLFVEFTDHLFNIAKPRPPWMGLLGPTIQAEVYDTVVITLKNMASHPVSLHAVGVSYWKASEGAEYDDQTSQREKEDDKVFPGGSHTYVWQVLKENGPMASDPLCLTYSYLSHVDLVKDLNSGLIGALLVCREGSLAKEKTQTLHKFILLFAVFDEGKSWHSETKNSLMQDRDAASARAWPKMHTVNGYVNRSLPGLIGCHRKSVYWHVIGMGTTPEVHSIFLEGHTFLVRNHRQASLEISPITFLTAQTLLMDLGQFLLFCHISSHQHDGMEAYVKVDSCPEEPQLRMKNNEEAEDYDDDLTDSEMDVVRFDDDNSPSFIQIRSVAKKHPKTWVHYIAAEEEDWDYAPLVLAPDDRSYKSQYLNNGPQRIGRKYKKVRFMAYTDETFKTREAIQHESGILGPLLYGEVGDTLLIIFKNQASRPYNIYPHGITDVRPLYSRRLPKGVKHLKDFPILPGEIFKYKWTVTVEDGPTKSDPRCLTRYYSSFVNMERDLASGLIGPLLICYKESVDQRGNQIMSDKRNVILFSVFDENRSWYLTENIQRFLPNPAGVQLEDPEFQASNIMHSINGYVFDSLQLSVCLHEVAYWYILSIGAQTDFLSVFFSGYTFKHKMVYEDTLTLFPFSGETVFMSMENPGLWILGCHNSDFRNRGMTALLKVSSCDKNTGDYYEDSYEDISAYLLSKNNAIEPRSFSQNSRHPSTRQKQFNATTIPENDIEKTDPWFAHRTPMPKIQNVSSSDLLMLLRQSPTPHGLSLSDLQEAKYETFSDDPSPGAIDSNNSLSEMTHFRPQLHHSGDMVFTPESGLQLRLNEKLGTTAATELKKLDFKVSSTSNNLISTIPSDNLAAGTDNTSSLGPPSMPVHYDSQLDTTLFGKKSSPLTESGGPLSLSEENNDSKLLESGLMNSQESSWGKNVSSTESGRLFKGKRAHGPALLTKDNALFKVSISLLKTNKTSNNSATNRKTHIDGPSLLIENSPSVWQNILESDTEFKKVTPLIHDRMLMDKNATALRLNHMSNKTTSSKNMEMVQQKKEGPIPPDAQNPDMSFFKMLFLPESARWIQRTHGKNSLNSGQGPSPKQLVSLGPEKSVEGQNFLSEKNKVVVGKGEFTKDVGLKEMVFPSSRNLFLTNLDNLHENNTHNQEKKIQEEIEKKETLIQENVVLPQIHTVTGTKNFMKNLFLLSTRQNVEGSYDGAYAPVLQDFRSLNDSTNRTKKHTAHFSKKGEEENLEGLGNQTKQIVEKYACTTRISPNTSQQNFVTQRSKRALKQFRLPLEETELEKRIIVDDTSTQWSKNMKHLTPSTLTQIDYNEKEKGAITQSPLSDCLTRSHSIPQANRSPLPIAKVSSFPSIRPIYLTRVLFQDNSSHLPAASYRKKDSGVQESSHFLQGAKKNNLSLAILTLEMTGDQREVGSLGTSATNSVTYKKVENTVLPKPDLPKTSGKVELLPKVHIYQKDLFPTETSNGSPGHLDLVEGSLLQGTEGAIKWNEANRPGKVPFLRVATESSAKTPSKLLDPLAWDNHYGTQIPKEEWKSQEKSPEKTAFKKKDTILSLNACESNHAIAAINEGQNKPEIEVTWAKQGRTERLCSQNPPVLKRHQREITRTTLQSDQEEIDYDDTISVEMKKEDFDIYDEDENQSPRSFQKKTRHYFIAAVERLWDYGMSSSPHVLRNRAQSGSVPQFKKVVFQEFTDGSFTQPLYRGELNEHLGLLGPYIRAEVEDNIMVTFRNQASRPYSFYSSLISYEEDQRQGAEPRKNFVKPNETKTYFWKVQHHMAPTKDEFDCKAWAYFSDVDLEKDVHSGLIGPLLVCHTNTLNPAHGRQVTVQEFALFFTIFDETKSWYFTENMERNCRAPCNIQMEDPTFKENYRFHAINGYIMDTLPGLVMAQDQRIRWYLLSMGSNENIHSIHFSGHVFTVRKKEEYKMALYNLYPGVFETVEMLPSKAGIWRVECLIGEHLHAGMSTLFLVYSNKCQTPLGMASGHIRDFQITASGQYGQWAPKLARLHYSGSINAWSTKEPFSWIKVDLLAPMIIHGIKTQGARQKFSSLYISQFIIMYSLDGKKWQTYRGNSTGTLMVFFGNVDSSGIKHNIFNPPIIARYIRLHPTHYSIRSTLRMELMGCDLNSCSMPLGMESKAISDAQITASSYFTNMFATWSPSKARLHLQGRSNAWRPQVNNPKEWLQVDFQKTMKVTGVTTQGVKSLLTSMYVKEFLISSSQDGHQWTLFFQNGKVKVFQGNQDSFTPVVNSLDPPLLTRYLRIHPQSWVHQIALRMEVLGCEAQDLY

FVIII (from UniProt P00451)
Kd (VWF (Homo sapiens)): 0.2 nM

recombinant Factor VIII Fc-fusion protein (rFVIIIFc) (Fc fusion)
EC50 of IFNγ secretion (ELISA) by CD16^+ NK cells (PTA-6967), overnight, rFVIIIFc 250 nM to 7.6 pM (Figure 2B) [1]: 0.0064 µM
surface CD107a (LAMP1), % LAMP1^+ PTA-6967 NK cells by flow cytometry after 6 hours with 250 nM rFVIIIFc, against untreated cells (Figure 2E) [2]: 8 fold

IgG1 Fc Fc (from UniProt P01857)
Kd (CD16 (Homo sapiens)): 1000 nM
